From publication PMC9130538, “Amino acids in transmembrane helix 1 confer major functional differences between human and mouse orthologs of the polyspecific membrane transporter OCT1” (The Journal of Biological Chemistry, 2022)

Key:
Experiment in all cases: cells, lysate or membranes
[1] = substrate: CC(C)(C)NCC(O)c1cc(O)cc(O)c1; details: other: HEK293 stably transfected, 2 min uptake, 37 °C, pH 7.4
[2] = substrate: NCCc1c[nH]c2ccc(O)cc12; details: other: HEK293 stably transfected, 2 min uptake, 37 °C, pH 7.4
[3] = substrate: CC(CCc1ccc(O)cc1)NCC(O)c1ccc(O)cc1; details: other: HEK293 stably transfected, 2 min uptake, 37 °C, pH 7.4
Description: (§1) Cells were cultured in Dulbecco’s Modified Eagle’s Medium supplemented with 10% fetal bovine serum, 100 U/ml penicillin, and 100 μg/ml streptomycin at 37 °C and 5% CO2 and were passaged twice a week.
(§2) At 48 h prior to the experiment, 6 × 10^5 cells were seeded per well in 12-well plates. When using transiently transfected cells, 5 × 10^5 T-REx-293 cells (Life Technologies) were seeded per well in 12-well plates 72 h prior to the experiment, and they were transfected 24 h later as described previously. Twelve-well plates were precoated with poly-D-lysine.
(§3) Cellular uptake experiments were performed at 37 °C and pH 7.4 using HBSS supplemented with 10 mM Hepes (in the following referred to as HBSS+). Cells were washed with 1 ml prewarmed (37 °C) HBSS+, and the uptake was initiated by adding 400 μl of prewarmed HBSS+ containing the substrate. Uptake was allowed for exactly 2 min and afterward stopped by adding 2 ml ice-cold HBSS+. Cells were washed twice with 2 ml ice-cold HBSS+ and lysed with 80% acetonitrile supplemented with internal standard, 0.1 N NaOH/0.1% SDS, or radioimmunoprecipitation buffer for LC–MS/MS, liquid scintillation counting, or fluorescence spectroscopy detection, respectively. Intracellular substrate concentrations were measured as described in the following and were then normalized to the amount of total protein in the samples as measured using the bicinchoninic acid assay ([51]).
(§4) For LC–MS/MS quantification of intracellular substrate concentrations, the cell lysate was centrifuged at 16,000g for 15 min, and 350 μl of supernatant was evaporated to dryness under nitrogen flow at 40 °C. The sample was reconstituted with 200 μl 0.1% formic acid, and between 2 and 30 μl were injected into the LC–MS/MS system (Table S1).
(§5) An API4000 QTRAP tandem mass spectrometer with ESI interface (AB SCIEX) was used, coupled to a Shimadzu Nexera X2 UHPLC system with LC 30AD pumps and SiL 30AC autosampler (Shimadzu).
(§6) Intracellular concentrations of radioactively labeled substrates MPP^+ and TEA^+ were quantified using liquid scintillation counting. To this end, 400 μl cell lysate was transferred into a 20 ml scintillation vial, 9 ml Aquasafe 500 Plus liquid scintillator (both Zinsser Analytics) was added, and the sample was measured in the Scintillation Counter LS6500 (Beckman Coulter).

[4] = substrate: O=C(O[C@H]1C[C@H]2CC[C@@H](C1)[N+]21CCCC1)C(O)(c1ccccc1)c1ccccc1; details: pH 7.4; 37.0 °C
Description: as §1, §2, §3, §4, §5, §6

[5] = substrate: CC(Cc1ccc(O)cc1)NCC(O)c1cc(O)cc(O)c1; details: other: HEK293 stably transfected, 2 min uptake, 37 °C, pH 7.4
[6] = substrate: NCCc1ccc(O)c(O)c1; details: other: HEK293 stably transfected, 2 min uptake, 37 °C, pH 7.4
[7] = substrate: CC(C)NCC(O)c1cc(O)cc(O)c1; details: other: HEK293 stably transfected, 2 min uptake, 37 °C, pH 7.4
[8] = substrate: CNS(=O)(=O)Cc1ccc2[nH]cc(CCN(C)C)c2c1; details: other: HEK293 stably transfected, 2 min uptake, 37 °C, pH 7.4
[9] = substrate: CNC[C@H](O)c1ccc(O)c(O)c1; details: other: HEK293 stably transfected, 2 min uptake, 37 °C, pH 7.4
[10] = substrate: CNC(=C[N+](=O)[O-])NCCSCc1ccc(CN(C)C)o1; details: other: HEK293 stably transfected, 2 min uptake, 37 °C, pH 7.4
[11] = substrate: CC(C)(C)NCC(O)c1ccc(O)c(CO)c1; details: other: HEK293 stably transfected, 2 min uptake, 37 °C, pH 7.4
[12] = substrate: COc1ccc(CC(C)NCC(O)c2ccc(O)c(NC=O)c2)cc1; details: other: HEK293 stably transfected, 2 min uptake, 37 °C, pH 7.4
[13] = substrate: CC(C)(C)NCC(O)c1ccc(O)c(CO)n1; details: other: HEK293 stably transfected, 2 min uptake, 37 °C, pH 7.4
[14] = substrate: CC(NCCc1ccc(O)cc1)C(O)c1ccc(O)cc1; details: other: HEK293 stably transfected, 2 min uptake, 37 °C, pH 7.4
[15] = substrate: NCCc1c[nH]cn1; details: other: HEK293 stably transfected, 2 min uptake, 37 °C, pH 7.4
[16] = substrate: [H]/N=C(/N)N/C(=N/[H])NCCc1ccccc1; details: other: HEK293 stably transfected, 2 min uptake, 37 °C, pH 7.4
Description: as §1, §2, §3, §4, §5, §6

[17] = substrate: C[N+]1(CC2CC2)CC[C@]23c4c5ccc(O)c4O[C@H]2C(=O)CC[C@@]3(O)[C@H]1C5; details: other: HEK293 stably transfected, 2 min uptake, 37 °C, pH 7.4
Description: as §1, §2, §3, §4, §5, §6

[18] = substrate: NC[C@H](O)c1ccc(O)c(O)c1; details: other: HEK293 stably transfected, 2 min uptake, 37 °C, pH 7.4
[19] = substrate: C[N+](C)(C)CCO; details: other: HEK293 stably transfected, 2 min uptake, 37 °C, pH 7.4

B1: human OCT1 (Homo sapiens) (protein)
chain: MPTVDDILEQVGESGWFQKQAFLILCLLSAAFAPICVGIVFLGFTPDHHCQSPGVAELSQRCGWSPAEELNYTVPGLGPAGEAFLGQCRRYEVDWNQSALSCVDPLASLATNRSHLPLGPCQDGWVYDTPGSSIVTEFNLVCADSWKLDLFQSCLNAGFLFGSLGVGYFADRFGRKLCLLGTVLVNAVSGVLMAFSPNYMSMLLFRLLQGLVSKGNWMAGYTLITEFVGSGSRRTVAIMYQMAFTVGLVALTGLAYALPHWRWLQLAVSLPTFLFLLYYWCVPESPRWLLSQKRNTEAIKIMDHIAQKNGKLPPADLKMLSLEEDVTEKLSPSFADLFRTPRLRKRTFILMYLWFTDSVLYQGLILHMGATSGNLYLDFLYSALVEIPGAFIALITIDRVGRIYPMAMSNLLAGAACLVMIFISPDLHWLNIIIMCVGRMGITIAIQMICLVNAELYPTFVRNLGVMVCSSLCDIGGIITPFIVFRLREVWQALPLILFAVLGLLAAGVTLLLPETKGVALPETMKDAENLGRKAKPKENTIYLKVQTSEPSGT
Km [1]: 197 ± 54.1 µM | Vmax [1]: 0.0008 µmol/min/mg | Vmax/Km [1]: 3.81 µL/min/mg | Km [2]: 663 ± 334 µM | Vmax [2]: 0.00618 µmol/min/mg | Vmax/Km [2]: 10 µL/min/mg | Km [3]: 2.17 ± 0.59 µM | Vmax [3]: 0.000336 µmol/min/mg | Vmax/Km [3]: 162 µL/min/mg | Km [4]: 17.0 ± 5.46 µM | Vmax [4]: 0.00141 µmol/min/mg | Vmax/Km [4]: 86.7 µL/min/mg | Km [5]: 0.87 ± 0.19 µM | Km [6]: 674 ± 194 µM | Vmax [6]: 0.000718 µmol/min/mg | Vmax/Km [6]: 1.04 µL/min/mg | Km [7]: 530 ± 44.9 µM | Vmax [7]: 0.0016 µmol/min/mg | Vmax/Km [7]: 3.03 µL/min/mg | Km [8]: 65.9 ± 15.1 µM | Vmax [8]: 0.00418 µmol/min/mg | Vmax/Km [8]: 63.6 µL/min/mg | Km [9]: 558 ± 411 µM | Vmax [9]: 0.00112 µmol/min/mg | Vmax/Km [9]: 2.69 µL/min/mg | Km [10]: 55.7 ± 4.63 µM | Vmax [10]: 0.00409 µmol/min/mg | Vmax/Km [10]: 75 µL/min/mg | Km [11]: 395 ± 56.8 µM | Vmax [11]: 0.00138 µmol/min/mg | Vmax/Km [11]: 3.55 µL/min/mg | Km [12]: 13.2 ± 3.71 µM | Km [13]: 29.2 ± 12.2 µM | Vmax [13]: 0.00202 µmol/min/mg | Vmax/Km [13]: 73.5 µL/min/mg | Km [14]: 0.68 ± 0.12 µM | Vmax [14]: 0.000153 µmol/min/mg | Vmax/Km [14]: 226 µL/min/mg | Km [15]: 4675 ± 2319 µM | Vmax [15]: 0.00512 µmol/min/mg | Vmax/Km [15]: 1.27 µL/min/mg | Km [16]: 18.7 ± 2.64 µM

B2: mouse Oct1 (Mus musculus) (protein)
chain: MPTVDDVLEHVGEFGWFQKQAFLLLCLISASLAPIYVGIVFLGFTPDHHCRSPGVAELSQRCGWSPAEELNYTVPGLGSAGEASFLSQCMKYEVDWNQSTLDCVDPLSSLAANRSHLPLSPCEHGWVYDTPGSSIVTEFNLVCGDAWKVDLFQSCVNLGFFLGSLVVGYIADRFGRKLCLLVTTLVTSLSGVLTAVAPDYTSMLLFRLLQGMVSKGSWVSGYTLITEFVGSGYRRTTAILYQVAFTVGLVGLAGVAYAIPDWRWLQLAVSLPTFLFLLYYWFVPESPRWLLSQKRTTQAVRIMEQIAQKNRKVPPADLKMMCLEEDASERRSPSFADLFRTPSLRKHTLILMYLWFSCAVLYQGLIMHVGATGANLYLDFFYSSLVEFPAAFIILVTIDRIGRIYPIAASNLVAGAACLLMIFIPHELHWLNVTLACLGRMGATIVLQMVCLVNAELYPTFIRNLGMMVCSALCDLGGIFTPFMVFRLMEVWQALPLILFGVLGLSAGAVTLLLPETKGVALPETIEEAENLGRRKSKAKENTIYLQVQTGKSPHT
Km [1]: 60.4 ± 18.7 µM | Vmax [1]: 0.00295 µmol/min/mg | Vmax/Km [1]: 48.7 µL/min/mg | Km [2]: 257 ± 53.3 µM | Vmax [2]: 0.0162 ± 0.00276 µmol/min/mg | Vmax/Km [2]: 63.9 µL/min/mg | Km [3]: 2.54 ± 0.83 µM | Vmax [3]: 0.000481 µmol/min/mg | Vmax/Km [3]: 207 µL/min/mg | Km [4]: 1.81 ± 1.03 µM | Vmax [4]: 0.000163 µmol/min/mg | Vmax/Km [4]: 102 µL/min/mg | Km [5]: 6.90 ± 0.56 µM | Km [17]: 8.61 ± 3.12 µM | Km [6]: 285 ± 3.25 µM | Vmax [6]: 0.00171 µmol/min/mg | Vmax/Km [6]: 6 µL/min/mg | Km [7]: 89.8 ± 9.34 µM | Vmax [7]: 0.00424 µmol/min/mg | Vmax/Km [7]: 47.6 µL/min/mg | Km [8]: 65.7 ± 17.0 µM | Vmax [8]: 0.00325 µmol/min/mg | Vmax/Km [8]: 50.5 µL/min/mg | Km [9]: 242 ± 38.6 µM | Vmax [9]: 0.00755 µmol/min/mg | Vmax/Km [9]: 31.2 µL/min/mg | Km [10]: 84.4 ± 27.0 µM | Vmax [10]: 0.0058 µmol/min/mg | Vmax/Km [10]: 74.1 µL/min/mg | Km [18]: 409 ± 60.7 µM | Vmax [18]: 0.00607 µmol/min/mg | Vmax/Km [18]: 11.6 µL/min/mg | Km [11]: 52.2 ± 7.27 µM | Vmax [11]: 0.00197 µmol/min/mg | Vmax/Km [11]: 38.2 µL/min/mg | Km [19]: 1286 ± 308 µM | Vmax [19]: 0.0166 ± 0.0059 µmol/min/mg | Vmax/Km [19]: 13 µL/min/mg | Km [12]: 9.81 ± 2.26 µM | Km [13]: 26.5 ± 12.5 µM | Vmax [13]: 0.00185 µmol/min/mg | Vmax/Km [13]: 76.3 µL/min/mg | Km [14]: 6.34 ± 0.89 µM | Vmax [14]: 0.000737 µmol/min/mg | Vmax/Km [14]: 116 µL/min/mg | Km [15]: 497 ± 136 µM | Vmax [15]: 0.00596 µmol/min/mg | Vmax/Km [15]: 11.9 µL/min/mg | Km [16]: 7.53 ± 0.63 µM
